Results on two molecules are retold here after patent US20250326860A1 (ADAGENE PTE, published 2025).

Assay [1] has as its target T1, human CD20 on cells (human B cells; Raji, SU-DHL-8, SU-DHL-4, A3KAW, NAMALWA) (human, UniProt P11836 1-297).
T1 construct: whole, on cells
T1 sequence (looked up): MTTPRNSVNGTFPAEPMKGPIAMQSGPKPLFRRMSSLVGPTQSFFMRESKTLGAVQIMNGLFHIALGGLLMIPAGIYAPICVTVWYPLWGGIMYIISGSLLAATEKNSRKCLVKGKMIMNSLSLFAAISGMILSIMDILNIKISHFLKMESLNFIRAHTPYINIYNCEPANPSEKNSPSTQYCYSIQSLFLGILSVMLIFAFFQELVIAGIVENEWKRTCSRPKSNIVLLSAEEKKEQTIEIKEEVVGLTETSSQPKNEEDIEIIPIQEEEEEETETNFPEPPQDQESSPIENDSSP
Put plainly: flow cytometry, Raji cells. As for the experimental part: (§1) Raji, SU-DHL-8, SU-DHL-4, A3KAW and NAMALWA were B-cell lymphoma cell lines with various CD20 expression levels on cell surface. Briefly, the test antibodies were serial diluted and were incubated with the tumor cells on ice. After washing, the cells were subsequently incubated with the APC-labelled anti-human-Fc secondary antibody (BioLegend) on ice. The cells were then washed with PBS prior to analysis by the CytoFLEX flow cytometer (Beckman Coulter). The data was analyzed by FlowJo software.

Assay [2] addresses T1, human CD20 on cells (human B cells; …). Put plainly: flow cytometry, A3KAW cells. How it is done:
as §1

Assay [3] has the same target. The assay is described as follows: flow cytometry, human B cells. The text has this:
(§2) Human and monkey PBMCs were isolated as mentioned above. Human B cells were further isolated from PBMCs using the EasySep™ Human B Cell Isolation Kit (Stem Cell Technologies). Monkey B cells were isolated from PBMCs using the Non-Human B Primate Cell Isolation Kit (Stem Cell Technologies). Purified human or monkey B cells were stained with the testing antibodies as the primary antibody and the APC-labelled anti-human-Fc antibody (BioLegend) as the secondary antibody. After washing, the cells were analyzed on the CytoFLEX flow cytometer (Beckman Coulter) and the data was analyzed by FlowJo software.
A general note: In flow cytometry, cells or beads pass a laser one at a time.

The target is the same in assay [4]. Put plainly: flow cytometry, NAMALWA cells. How it is done:
as §1

The target in assay [5] is T2, cynomolgus monkey CD20 on B cells (cynomolgus monkey, UniProt M4ZHZ6 1-297).
T2 construct: whole, on cells
T2 sequence: T1 sequence (looked up) with S25P, F31L, T51A, A157V, K217R, N226S, I227V, T239V
The assay is described as follows: flow cytometry, monkey B cells.
Text: as §2

The target in assay [6] is T1, human CD20 on cells (human B cells; …). The assay is described as follows: flow cytometry, SU-DHL-4 cells. As for the experimental part:
as §1

The target is the same in assay [7]. The assay is described as follows: flow cytometry, SU-DHL-8 cells. As for the experimental part: as §1
For assay [8], the target named is T3, human CD3 on cells (Jurkat cells, human T cells) (human, UniProt P07766 23-207).
T3 construct: whole, on cells
The assay is described as follows: flow cytometry, human CD3+ T cells. From the text: (§3) Human PBMCs were freshly isolated from the blood of healthy donors by density gradient centrifugation using Histopaque-1077 (Sigma). Human CD3+ T cells were further isolated from PBMCs using the Human T Cell Enrichment Kit (Stem Cell Technologies). Monkey PBMCs were isolated from a naïve cynomolgus monkey by density gradient centrifugation using Histopaque-1077 (Sigma). Monkey CD3+ T cells were isolated from PBMCs using the Pan T Cell Isolation Kit Non-Human Primate (Miltenyi Biotec). Purified human or monkey CD3+ T cells were stained with the testing antibodies as the primary antibody and the APC-labelled anti-human-Fc antibody (BioLegend) as the secondary antibody. After washing, the cells were analyzed on the CytoFLEX flow cytometer (Beckman Coulter) and the data was analyzed by FlowJo software.

For assay [9], the target named is T4, cynomolgus monkey CD3 on T cells (cynomolgus monkey, UniProt Q95LI5 22-198).
T4 construct: whole, on cells
The assay is described as follows: flow cytometry, monkey CD3+ T cells.
Text: as §3

In assay [10] the target is T3, human CD3 on cells (Jurkat cells, human …). The assay is described as follows: flow cytometry, human CD4+ T cells. As for the experimental part:
(§4) Binding of CD20xCD3 bispecific or SAFE-bispecific antibodies to purified human CD3+ T cells was determined by flow cytometry. Briefly, human or monkey PBMC were freshly purified with Ficoll gradient solution—Histopaque 1077 (Sigma) from a healthy donor and CD3+ T cells were isolated using EasySep™ Human T cell Enrichment Kit (StemCell). Before staining, […] human Fc receptors on CD3+ T cells were blocked with Human Fc Block (BD). Then cells were incubated with fluorescence labeled antibody mixture (APC-Cy7 Mouse Anti-human CD3, PerCP-CyTM5.5 Anti-human CD4 and FITC anti-human CD8) for 15 minutes at 4° C. After washing the cells once with PBS supplemented with 2% FBS, cells were aliquoted to 96-well plates at 2×10⁵ cells per well, and cells were incubated with serial diluted bispecific, SAFE-bispecific or IgG1 isotype control antibodies for 30 minutes at 4° C. After washing the cells twice with PBS supplemented with 2% FBS, cell surface bound antibody was detected by incubating the cells with APC-labeled mouse anti-human IgG Fc secondary antibody for 30 minutes at 4° C. Cells were washed and detected by FACS using Cytoflex (BeckMan) and data was analyzed by FlowJo. The mean fluorescence (MFI) of each antibody binding to human or monkey CD4+ T cells and CD8+ T cell populations were fitted with four-parameter non-linear regression to get EC₅₀ values by GraphPad Prism software.

The target is the same in assay [11]. Put plainly: flow cytometry, human CD8+ T cells. As for the experimental part:
as §4

Assay [12] has as its target T4, cynomolgus monkey CD3 on T cells. The assay is described as follows: flow cytometry, monkey CD4+ T cells. As for the experimental part: as §4
Assay [13] has the same target. Put plainly: flow cytometry, monkey CD8+ T cells. As for the experimental part: as §4
The target in assay [14] is T3, human CD3 on cells (Jurkat cells, human …). The assay is described as follows: binding to human CD3+ T cells.
For assay [15] the target is unchanged. Put plainly: binding to human CD4+ T cells.
Assay [16] shares this target. The assay is described as follows: binding to human CD8+ T cells.
For assay [17], the target named is T1, human CD20 on cells (human B cells; …). The assay is described as follows: flow cytometry, human B cells. As for the experimental part: After washing the cells twice with PBS supplemented with 2% FBS, cell surface bound antibody was detected by incubating the cells with APC-labeled mouse anti-human IgG Fc secondary antibody for 30 minutes at 4° C. Cells were washed and detected by FACS using Cytoflex (BeckMan) and data was analyzed by FlowJo.
This is another data set of the same source.

Assay [18] addresses T2, cynomolgus monkey CD20 on B cells. Put plainly: flow cytometry, monkey B cells. The source holds these as a separate data set.

Where a chain is given by its changes, count along the chain named. Like-named read-outs stand apart in the source and are kept apart here.

T4 sequence (Q95LI5 22-198): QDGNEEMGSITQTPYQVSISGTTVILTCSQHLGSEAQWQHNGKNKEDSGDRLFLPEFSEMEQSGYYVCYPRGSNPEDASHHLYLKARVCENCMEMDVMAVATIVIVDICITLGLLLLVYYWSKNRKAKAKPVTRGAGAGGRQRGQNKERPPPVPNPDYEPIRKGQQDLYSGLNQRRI
T3 sequence (P07766 23-207): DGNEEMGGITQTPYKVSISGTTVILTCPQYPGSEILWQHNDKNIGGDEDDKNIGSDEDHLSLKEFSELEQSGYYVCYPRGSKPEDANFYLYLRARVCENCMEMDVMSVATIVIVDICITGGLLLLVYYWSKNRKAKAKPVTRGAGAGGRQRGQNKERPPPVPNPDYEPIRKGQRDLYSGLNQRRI

B1: TAC2392 (bispecific antibody)
light: QIVLTQSPSSLSASVGDRVTITCRASSSVSYIHWFQQKPGKSPKPLIYATSNLASGVPVRFSGSGSGTDYTLTISSLQPEDFATYYCQQWTSNPPTFGGGTKVEIKRTVAAPSVFIFPPSDEQLKSGTASVVCLLNNFYPREAKVQWKVDNALQSGNSQESVTEQDSKDSTYSLSSTLTLSKADYEKHKVYACEVTHQGLSSPVTKSFNRGEC
heavy: QVQLVQSGAEVKKPGASVKVSCKASGYTFTSYNMHWVRQAPGQGLEWMGAIYPGNGDTSYNQKFQGRVTITADKSISTAYMELSSLRSEDTAVYYCARSTYYGGDWYFNVWGAGTLVTVSSASTKGPSVFPLAPSSKSTSGGTAALGCLVKDYFPEPVTVSWNSGALTSGVHTFPAVLQSSGLYSLSSVVTVPSSSLGTQTYICNVNHKPSDTKVDKKVEPKSCDKTHTCPPCPAPPVAGPSVFLFPPKPKDTLMISRTPEVTCVVVDVKHEDPEVKFNWYVDGVEVHNAKTKPREEEYNSTYRVVSVLTVLHQDWLNGKEYKCKVSNKALPAPIEKTISKAKGQPREPQVYTLPPSREEMTKNQVSLTCDVSGFYPSDIAVEWESDGQPENNYKTTPPVLDSDGSFFLYSKLTVDKSRWEQGDVFSCSVMHEALHNHYTQKSLSLSPGK
chain: not shown
notes: also called CD20xCD3 bispecific antibody
B1: the EC50 (usually the concentration needed to bring the measured effect to its halfway point) amounted to 135 nM in assay [1]; 487 nM in assay [2]; 12.6 nM in assay [3]; 592 nM in assay [4]; 83.8 nM in assay [5]; 26.9 nM in assay [6]. The EC50 in assay [7] was found to be 48.6 nM; in assay [8], 6.92 nM; in assay [9], 26.6 nM; in assay [10] it was 62.1 nM; in assay [11], 37.2 nM; in assay [12] it was 120 nM. Besides, the EC50 in assay [13] is 58.6 nM. The “Max MFI” value in assay [1] worked out at 22000 MFI; in [2] it was 675000 MFI; in assay [4], 447000 MFI; in [6], 2.29e+06 MFI; in assay [7] it was 3640 MFI. The “max MFI” value in assay [3] was 32300 MFI; in assay [5] it was 6020 MFI; in [8] it was 6490 MFI; in [9], 3200 MFI.

B2: TY25455 (bispecific antibody, human IgG1, kappa, N297A)
light: QIVLSQSPAILSASPGEKVTMTCRASSSVSYIHWFQQKPGKSPKPWIYATSNLASGVPVRFSGSGSGTSYSLTISRVEAEDAATYYCQQWTSNPPTFGGGTKVEIKRTVAAPSVFIFPPSDEQLKSGTASVVCLLNNFYPREAKVQWKVDNALQSGNSQESVTEQDSKDSTYSLSSTLTLSKADYEKHKVYACEVTHQGLSSPVTKSFNRGEC
heavy: EVQLVQSGAEVKKPGSSVKVSCKASGYTFTSYNMHWVRQAPGKGLEWIGAIYPGSGDTSYNQKFKGRVTITADKSTSTAYMELSSLRSEDTAVYYCARSTYYGGDWYFNVWGQGTLVTVSSASTKGPSVFPLAPSSKSTSGGTAALGCLVKDYFPEPVTVSWNSGALTSGVHTFPAVLQSSGLYSLSSVVTVPSSSLGTQTYICNVNHKPSNTKVDKKVEPKSCDKTHTCPPCPAPELLGGPSVFLFPPKPKDTLMISRTPEVTCVVVDVSHEDPEVKFNWYVDGVEVHNAKTKPREEQYASTYRVVSVLTVLHQDWLNGKEYKCKVSNKALPAPIEKTISKAKGQPREPQVYTLPPSRKKLTKNQVKLTCLVKGFYPSDIAVEWESNGQPENNYKTTPPVLDCDGSFFLYSKLTVDKSRWQQGNVFSCSVMHEALHNHYTQKSLSLSPGK
chain: QAVVTQEPSLTVSPGGTVTLTCGSSTGAVTTSNYPNWVQQKPGQAPRGLIGGTNKRAPGVPARFSGSLLGGKAALTLSGAQPEDEAEYYCALWYSNLWVFGGGTKLTVLGGGGSGGGGSGGGGSGGGGSEVQLVESGGGLVQPGGSLRLSCAASGFTFNTYAINWVRQAPGKGLEWVGRIRSKYNNYATYYAESVKGRFTISRDDSKNTLYLQINSLRAEDTAVYYCVRHGNFGTSYVSWFAYWGQGTLVTVSSEPKSSDKTHTCPPCPAPELLGGPSVFLFPPKPKDTLMISRTPEVTCVVVDVSHEDPEVKFNWYVDGVEVHNAKTKPREEQYASTYRVVSVLTVLHQDWLNGKEYKCKVSNKALPAPIEKTISKAKGQPREPQVYTDPPSRDELTKNQVSLTCLVDGFYPSDIAVEWESNGQPENCYKTTPPVLDSDGSFFLYSKLTVDKSRWQQGNVFSCSVMHEALHNHYTQDSLSLSPGK
notes: also called parental CD20xCD3 bispecific antibody of TY25606; TY2455
With B2, the EC50 amounted to 21.7 nM in [14]; 18.1 nM in assay [15]; 25.4 nM in [16]; 9.52 nM in [8]; 10.5 nM in assay [9]; 39.1 nM in assay [18]. Also, the EC50 is 27.3 nM in assay [12] and 82.1 nM in assay [13]. Also, the “max MFI” value in [8] is 4850 MFI; in assay [9] it was 2100 MFI. The binding result in [17] was “binds”.
